Publication PMC4201290, “Wilms tumor protein recognizes 5-carboxylcytosine within a specific DNA sequence”

B1: crystal oligo Egr1 5mC/5mC (dsDNA)
DNA 1: AGCGTGGGCGT
DNA 2: TACGCCCACGC
modifications: 5mC in both strands of the 3' GCG
B2: crystal oligo Egr1 5hmC/5hmC (dsDNA)
DNA 1: AGCGTGGGCGT
DNA 2: TACGCCCACGC
modifications: 5hmC in both strands of the 3' GCG
B3: crystal oligo Egr1 5fC/5fC (dsDNA)
DNA 1: AGCGTGGGCGT
DNA 2: TACGCCCACGC
modifications: 5fC in both strands of the 3' GCG

The binders below were run against Egr1/Zif268 ZnF1-3 (Homo sapiens, UniProt P18146) (assay: X-ray crystallography; Zn2+; FP: 5 nM FAM-dsDNA, 300 mM NaCl (200 mM in Fig 4E), 20 mM Tris-HCl pH 7.5, 5% glycerol, 0.5 mM TCEP, 25 C, 10 min).

Binding result, binds:
B1, B2, B3
